The results in this text go back to article PMC8134462, “Cross-reactive serum and memory B-cell responses to spike protein in SARS-CoV-2 and endemic coronavirus infection” (Nature Communications, 2021).

Assay [1] addresses T1, SARS-CoV-2 RBD-SD1-2 (residue 320-681) (SARS-CoV-2, Wuhan-Hu-1 (MN908947), UniProt P0DTC2).
T1 construct: source: FreeStyle293F, transfected, purified (Ni-NTA, SEC)
In words: BLI. Particulars: both partners purified.

Assay [2] addresses T2, SARS-CoV-2 N-terminal domain-NTD (residue 1-290) (SARS-CoV-2, Wuhan-Hu-1 (MN908947), UniProt P0DTC2).
T2 construct: source: FreeStyle293F, transfected, purified (Ni-NTA, SEC)
Nature of the assay: BLI. The following applies: both partners purified.

Assay [3] deals with T3, SARS-CoV-2 receptor-binding domain-RBD (residue 320-527) (SARS-CoV-2, Wuhan-Hu-1 (MN908947), UniProt P0DTC2).
T3 construct: source: FreeStyle293F, transfected, purified (Ni-NTA, SEC)
In words: BLI. The following applies: both partners purified.

The target of assay [4] is T4, SARS-CoV-2 RBD-SD1 (residue 320-591) (SARS-CoV-2, Wuhan-Hu-1 (MN908947), UniProt P0DTC2).
T4 construct: source: FreeStyle293F, transfected, purified (Ni-NTA, SEC)
In words: BLI. Particulars: both partners purified.

Assay [5] has as its target T5, HCoV-OC43 spike protein, full-length, expressed on the HEK293T cell surface (HCoV-OC43).
T5 construct: source: HEK293T, transfected (phCMV3), on the cell surface
In words: flow cytometry on cells. The following applies: one partner purified. (In general: In flow cytometry, cells or beads pass a laser one at a time.)

The target in assay [6] is T6, HCoV-229E spike protein, full-length, expressed on the HEK293T cell surface (HCoV-229E (NP_073551.1), UniProt P15423).
T6 construct: source: HEK293T, transfected (phCMV3), on the cell surface
In words: flow cytometry on cells. Particulars: one partner purified.

Assay [7] concerns the target T7, SARS-CoV-2 spike protein, full-length, expressed on the HEK293T cell surface (SARS-CoV-2, Wuhan-Hu-1 (MN908947), UniProt P0DTC2).
T7 construct: source: HEK293T, transfected (phCMV3), on the cell surface
Nature of the assay: flow cytometry on cells. The following applies: one partner purified.

Assay [8] has as its target T8, HCoV-HKU1 spike protein, full-length, expressed on the HEK293T cell surface (HCoV-HKU1, isolate N1 (YP_173238.1), UniProt Q5MQD0).
T8 construct: also called HKU1-CoV S; source: HEK293T, transfected (phCMV3), on the cell surface
Nature of the assay: flow cytometry on cells. Particulars: one partner purified.

Assay [9] has as its target T9, HCoV-NL63 spike protein, full-length, expressed on the HEK293T cell surface (HCoV-NL63 (YP_003767.1), UniProt Q6Q1S2).
T9 construct: source: HEK293T, transfected (phCMV3), on the cell surface
In words: flow cytometry on cells. Particulars: one partner purified.

Assay [10] deals with T10, HCoV-HKU1 soluble S ectodomain protein (residue 1-1295), prefusion-stabilized, with T4 fibritin trimerization … (HCoV-HKU1, isolate N1 (YP_173238.1), UniProt Q5MQD0, A1071/L1072 replaced by proline residues).
T10 construct: also called HCoV-HKU1 S-protein; HKU1-CoV S protein; source: FreeStyle293F, transfected, purified (Ni-NTA or GNL column, SEC)
In words: BLI. Particulars: both partners purified.

B1: mAb CC9.1 (antibody, V domains shown)
VH: EVQLVESGGGLVQPGRSLRLSCVAPGFTLGGYGMHWVRQAPGKGLEWVGLISYDGSVQKYGSSVKGRFTISKDNSKNTLYLEMNSLRADDTAVYFCVKGASLGDNWGQGTLVTVSS
VL: EIVMTQSPLSLPVTLGQPASISCRSSQSLVYSDGDTYMSWFHQRPGQSPRRLIYKVSNRDSGVPDRFSGSGSGTDFTLKISRVEAEDVGVYYCMQGTHWPYTFGPGTKVEIK
On to B1, for which the binding result in assay [1] was “no binding”; in [2], “no binding”; in assay [3], “no binding”; in [4], “no binding”; in [5] it was “binds”; in [6] it was “no binding”. The binding result is listed as “binds” in [7], “binds” in assay [8] and “no binding” in assay [9].

B2: Fab CC9.2 (Fab, V domains shown)
VH: EVQLVESGGGLVQPGRSLRLSCVAPGFTLGGYGMHWVRQAPGKGLEWVGLISYDGSVQKYGSSVKGRFTISKDNSKNTLYLEMNSLRADDTAVYFCVKGASLGDNWGQGTLVTVSS
VL: EIVMTQSPLSLPVTLGQPASISCRSSQSLVYSDGDTYMSWFHQRPGQSPRRLIYKVSNRDFGVPDRFSGSGSGTDFTLKISRVEAEDVGVYYCMQGTHWPYTFGPGTKVEIK
notes: also called CC9.2 Fab
Regarding B2, in assay [10], the binding result is recorded as “binds”.

B3: mAb CC9.2 (IgG) (antibody, V domains shown)
VH: EVQLVESGGGLVQPGRSLRLSCVAPGFTLGGYGMHWVRQAPGKGLEWVGLISYDGSVQKYGSSVKGRFTISKDNSKNTLYLEMNSLRADDTAVYFCVKGASLGDNWGQGTLVTVSS
VL: EIVMTQSPLSLPVTLGQPASISCRSSQSLVYSDGDTYMSWFHQRPGQSPRRLIYKVSNRDFGVPDRFSGSGSGTDFTLKISRVEAEDVGVYYCMQGTHWPYTFGPGTKVEIK
On to B3, for which the binding result in [1] is “no binding”; in assay [2], “no binding”; in assay [3], “no binding”; in assay [10], “binds”; in assay [4], “no binding”; in assay [5], “binds”. Further, the binding result was “no binding” in [6], “binds” in assay [7], “binds” in assay [8] and “no binding” in [9].

B4: second SARS-CoV-2/HCoV-HKU1 cross-reactive mAb from the CC40 donor (its name is not printed in the text) (antibody, V domains shown)
VH: EVQLVESGGGVVQPGRSLRLSCVASGFTFSNYGMHWVRQAPGKGLEWVAVMSYDGSVTYYGDSVRGRFTISRDNSKNTLYLQMSSLRTDDTGVYYCAKGQPLDDIWGLGTLVTVSS
VL: EIVMTQSPLSLPVSLGQSASISCRSSQSLVHTDGITYLSWFQQRPGQSPRRLLYKVSNRDSGVPDRFSGSGSGTDFTLKISRVEAEDVGVYYCLQGTYWPWTFGQGTKVEIK
notes: also called one of the two cross-reactive mAbs from the CC40 donor
On to B4, for which the binding result in assay [1] is reported as “no binding”; in [2], “no binding”; in [3] it was “no binding”; in assay [4], “no binding”; in [5], “binds”; in assay [6], “no binding”. In addition, the binding result is on record as “binds” in assay [7], “binds” in [8] and “no binding” in assay [9].
